We go through nine molecules from patent US20120231005A1 (Merck Sharp & Dohme, published 2012).

For test [1], the target named is T1, human PCSK9 (human, UniProt Q8NBP7 31-692, limits assumed).
T1 construct: It carried an AlexaFluor647 label in the TR-FRET assay only; also called hPCSK9; wild type human PCSK9
The test can be described thus: SPR (Biacore); IgG captured on anti-human IgG, PCSK9 injected. As to the method: (§1) The affinities of those IgG molecules were also measured by Biacore assay. Briefly, anti-human IgG monoclonal antibody form Human Antibody Capture Kit provided by Biacore was immobilized on CM5 chips at a level of 8000 to 10000 RU. […] After each round injection, the sensor chip surface was regenerated by 30 second injection of 3M Magnesium Chloride.

The target of test [2] is T1, human PCSK9. Nature of the test: affinity table, IgG2 (Biacore). As to the method:
as §1

The target in test [3] is rhesus PCSK9 (rhesus). Nature of the test: affinity table, IgG2 (Biacore).
The target in test [4] is T1, human PCSK9. Nature of the test: cell-based or functional assay.
For test [5], the target named is rhesus PCSK9 (rhesus). Nature of the test: SPR (Biacore); IgG captured on anti-human IgG, PCSK9 injected.
The target in test [6] is T1, human PCSK9. Nature of the test: affinity table, IgG2 (Biacore). As to the method: as §1
The source holds these as a separate data set.

The next test addresses T2, mouse PCSK9 (mouse, UniProt Q80W65 35-694, limits assumed).
T2 construct: also called Mouse PCSK9 9
The test can be described thus: affinity table, IgG2 (Biacore). As to the method: as §1

The next test has as its target T3, rat PCSK9 (rat, UniProt P59996 31-691, limits assumed).
T3 construct: also called rPCSK9
The test can be described thus: affinity table, IgG2 (Biacore). As to the method: as §1

A further test concerns the target T4, human FcRn (human, UniProt P55899 24-297; P61769 21-119, limits assumed).
T4 construct: Beta-2-microglobulin is not mentioned for the purified protein; also called human FeRn
Nature of the test: Biacore; human FcRn immobilised, 100 nM mAb bound at pH 6.0, read 5 s into dissociation at pH 7.3. As to the method:
The neutral pH dissociation of mAbs from human FeRn was measured by SPR using a Biacore T-100 instrument. Briefly, purified FeRn protein was immobilized onto a Biacore CM5 biosensor chip and PBSP (50 mM NaPO4, 150 mM NaCl and 0.05% (v/v) Surfactant 20) pH 7.3 was used as running buffer. The mAbs were diluted with PBSP pH 6.0 to 100 nM, allowed to bind FcRn for 3 minutes to reach equilibrium and followed by 1 minute of dissociation in pH 7.3 running buffer. A report point (Stability) was inserted at 5 seconds after the end of mAb binding and the “% bound” was calculated as RUStability/RUBinding (%).

Test [7] concerns the target T1, human PCSK9. Nature of the test: TR-FRET; antibody titrated against 10 nM AF647-PCSK9 and about 4 nM Eu-LDLR ectodomain. As to the method:
After at least 90 minutes of equilibration, samples were read in a Rubystar reader (BMG Corp.) using 20 flashes per well, a 50 μsec integration delay, and a 200 μsec total integration time.

In test [8] the target is rhesus PCSK9 (rhesus). The test can be described thus: cell-based or functional assay.

T1 sequence (Q8NBP7 31-692 limits assumed): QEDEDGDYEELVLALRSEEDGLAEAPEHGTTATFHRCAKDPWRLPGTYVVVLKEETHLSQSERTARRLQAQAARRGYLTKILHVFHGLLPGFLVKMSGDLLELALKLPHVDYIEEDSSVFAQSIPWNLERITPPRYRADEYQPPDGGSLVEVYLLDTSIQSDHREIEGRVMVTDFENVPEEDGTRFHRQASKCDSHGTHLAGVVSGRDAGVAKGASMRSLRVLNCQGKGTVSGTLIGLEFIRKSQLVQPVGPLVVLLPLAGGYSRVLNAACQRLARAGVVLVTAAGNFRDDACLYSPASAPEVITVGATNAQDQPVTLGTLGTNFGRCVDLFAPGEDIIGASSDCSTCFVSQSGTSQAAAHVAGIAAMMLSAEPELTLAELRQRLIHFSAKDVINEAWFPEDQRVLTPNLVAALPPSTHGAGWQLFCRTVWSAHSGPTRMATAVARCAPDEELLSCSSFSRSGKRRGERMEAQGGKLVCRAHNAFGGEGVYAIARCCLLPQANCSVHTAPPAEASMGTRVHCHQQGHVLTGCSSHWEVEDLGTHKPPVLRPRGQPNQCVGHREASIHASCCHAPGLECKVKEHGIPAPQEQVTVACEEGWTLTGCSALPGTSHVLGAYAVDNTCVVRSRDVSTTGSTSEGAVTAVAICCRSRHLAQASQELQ
T2 sequence (Q80W65 35-694 limits assumed): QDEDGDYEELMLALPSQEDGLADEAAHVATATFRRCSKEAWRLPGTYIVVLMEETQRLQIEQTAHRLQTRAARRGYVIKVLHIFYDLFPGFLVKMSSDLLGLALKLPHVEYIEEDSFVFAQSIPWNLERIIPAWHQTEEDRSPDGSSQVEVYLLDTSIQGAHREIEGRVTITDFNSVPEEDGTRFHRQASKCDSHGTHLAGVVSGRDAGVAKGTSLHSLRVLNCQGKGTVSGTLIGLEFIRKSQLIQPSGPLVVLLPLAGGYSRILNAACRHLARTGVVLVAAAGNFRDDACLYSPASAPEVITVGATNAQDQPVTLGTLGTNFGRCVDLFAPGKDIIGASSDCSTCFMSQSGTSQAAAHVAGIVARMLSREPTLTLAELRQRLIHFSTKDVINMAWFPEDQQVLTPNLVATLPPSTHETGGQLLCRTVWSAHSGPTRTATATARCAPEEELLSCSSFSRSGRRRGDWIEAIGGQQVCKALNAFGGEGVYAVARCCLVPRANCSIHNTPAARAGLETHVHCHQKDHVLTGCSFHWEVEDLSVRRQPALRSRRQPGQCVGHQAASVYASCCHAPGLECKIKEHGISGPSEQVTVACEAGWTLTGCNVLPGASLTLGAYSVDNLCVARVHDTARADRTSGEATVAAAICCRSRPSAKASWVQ
T3 sequence (P59996 31-691 limits assumed): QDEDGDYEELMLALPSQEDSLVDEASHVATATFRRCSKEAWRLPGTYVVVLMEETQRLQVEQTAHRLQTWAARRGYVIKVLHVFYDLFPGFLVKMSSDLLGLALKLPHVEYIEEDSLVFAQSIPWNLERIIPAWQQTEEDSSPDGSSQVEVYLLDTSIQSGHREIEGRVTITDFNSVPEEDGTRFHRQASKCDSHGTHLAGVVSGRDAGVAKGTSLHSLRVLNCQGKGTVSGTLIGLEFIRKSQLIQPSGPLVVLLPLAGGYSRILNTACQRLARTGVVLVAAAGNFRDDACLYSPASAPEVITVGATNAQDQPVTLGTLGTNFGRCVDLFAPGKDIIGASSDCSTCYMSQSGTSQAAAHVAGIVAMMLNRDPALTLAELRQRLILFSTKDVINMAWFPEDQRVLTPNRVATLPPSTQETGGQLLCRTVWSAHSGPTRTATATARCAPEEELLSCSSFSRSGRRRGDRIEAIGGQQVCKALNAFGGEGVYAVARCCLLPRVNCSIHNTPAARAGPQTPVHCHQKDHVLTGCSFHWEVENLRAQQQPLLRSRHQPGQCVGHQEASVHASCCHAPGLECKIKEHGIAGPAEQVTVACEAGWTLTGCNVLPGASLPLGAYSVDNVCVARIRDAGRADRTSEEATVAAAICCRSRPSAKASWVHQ
T4 sequence (P55899 24-297 limits assumed, form in doubt, chain 1 of 2): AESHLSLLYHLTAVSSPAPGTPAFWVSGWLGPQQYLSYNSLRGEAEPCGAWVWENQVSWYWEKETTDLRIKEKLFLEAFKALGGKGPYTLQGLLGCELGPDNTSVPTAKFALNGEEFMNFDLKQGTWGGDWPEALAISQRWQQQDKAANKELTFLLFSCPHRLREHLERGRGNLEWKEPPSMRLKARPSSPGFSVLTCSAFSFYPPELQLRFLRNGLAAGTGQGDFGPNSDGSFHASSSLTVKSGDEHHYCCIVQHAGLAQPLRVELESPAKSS
T4 sequence (P61769 21-119 limits assumed, form in doubt, chain 2 of 2): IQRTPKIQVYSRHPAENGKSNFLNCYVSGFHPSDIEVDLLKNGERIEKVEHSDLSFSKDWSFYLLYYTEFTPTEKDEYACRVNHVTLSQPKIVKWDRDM

B1: AX1DG IgG2 (antibody, V domains shown)
VH: EVQLLESGGGLVQPGGSLRLSCKASGFTFTSYYMHWVRQAPGKGLEWIGRINPDSGSTKYNEKFKGRATISRDNSKNTLYLQMNSLRAEDTAVYYCARGGRLSWDFDVWGQGTLVTVSS
VL: DIQMTQSPSSLSASVGDRVTITCRASQDISRYLAWYQQKPGKAPKLLIYAASSLQSGVPSRFSGSGSGTDFTLTISSLQPEDFATYYCAAYDYSLGGYVFGGGTKVEIK
notes: IgG2; also called AXIDG
Consider B1, for which the equilibrium dissociation constant (Kd) with human PCSK9 [1] stood at 4.61 nM; with human PCSK9 [2], 4.61 nM; with rhesus PCSK9 (rhesus) [3] it was 8.1 nM; with rhesus PCSK9 (rhesus) [5], 3.6 nM; with human PCSK9 [6], 4.61 nM. In addition, in the test with human PCSK9 [4], the “IgG IC50 (nM), inhibition of PCSK9 on LDL uptake (Exopolar assay)” value (from here on “IgG IC50 (nM), inhibition of PCSK9”) was found to be 7.4 nM. Besides, the binding result in the test with mouse PCSK9 and with rat PCSK9 was “no binding” in each case.

B2: AX9 IgG2 (antibody)
heavy: EVQLLESGGGLVQPGGSLRLSCKASGYTFSSYWMHWVRQAPGKGLEWIGRIDPYNGGTKYNEKFKGKATISRDNSKNTLYLQMNSLRAEDTAVYYCARYGYYLGSYAMDYWGQGTLVTVSSASTKGPSVFPLAPCSRSTSESTAALGCLVKDYFPEPVTVSWNSGALTSGVHTFPAVLQSSGLYSLSSVVTVPSSNFGTQTYTCNVDHKPSNTKVDKTVERKCCVECPPCPAPPVAGPSVFLFPPKPKDTLMISRTPEVTCVVVDVSHEDPEVQFNWYVDGVEVHNAKTKPREEQFNSTFRVVSVLTVVHQDWLNGKEYKCKVSNKGLPAPIEKTISKTKGQPREPQVYTLPPSREEMTKNQVSLTCLVKGFYPSDIAVEWESNGQPENNYKTTPPMLDSDGSFFLYSKLTVDKSRWQQGNVFSCSVMHEALHNHYTQKSLSLSPGK
light: DIQMTQSPSSLSASVGDRVTITCRASQDVSKYLAWYQQKPGKAPKLLIYAASSLQSGVPSRFSGSGSGTDFTLTISSLQPEDFATYYCQVYDSSPNAYVFGGGTKVEIKRTVAAPSVFIFPPSDEQLKSGTASVVCLLNNFYPREAKVQWKVDNALQSGNSQESVTEQDSKDSTYSLSSTLTLSKADYEKHKVYACEVTHQGLSSPVTKSFNRGEC
For B2, the Kd is 20.6 nM with human PCSK9 [1], 8.82 nM with rhesus PCSK9 (rhesus) [3], 8.82 nM with rhesus PCSK9 (rhesus) [5] and 20.6 nM with human PCSK9 [6]. In addition, the “% bound (RUStability/RUBinding)” value in the test with human FcRn is 1%. Further, the “IgG IC50 (nM), inhibition of PCSK9” value with human PCSK9 [4] worked out at 25.5 nM; with rhesus PCSK9 (rhesus) [8] it was 28.6 nM. In the test with human PCSK9 [7], this molecule came in with a concentration for half-maximal inhibition (IC50) of 4.1 nM. Moreover, the binding result in the test with mouse PCSK9 and in the test with rat PCSK9 was “no binding” throughout.

B3: AX188 IgG2 (antibody, V domains shown)
VH: EVQLLESGGGLVQPGGSLRLSCKASGYTFSSYWMHWVRQAPGKGLEWIGRIDPYNGGTKYNEKFKGKATISRDNSKNTLYLQMNSLRAEDTAVYYCARYGYYLGSYAMDYWGQGTLVTVSS
VL: DIQMTQSPSSLSASVGDRVTITCRASQSVSRYLAWYQQKPGKAPKLLIYAASSLQSGVPSRFSGSGSGTDFTLTISSLQPEDFATYYCEAYDYSSGPWVFGGGTKVEIKR
notes: IgG2
For the molecule B3, the Kd in the test with human PCSK9 [1] came to 0.873 nM; in the test with rhesus PCSK9 (rhesus) [5] it was 0.454 nM. In addition, the “IgG IC50 (nM), inhibition of PCSK9” value with human PCSK9 [4] came to 24.8 nM; with rhesus PCSK9 (rhesus) [8], 18.7 nM.

B4: AX189 IgG2 (antibody)
heavy: EVQLLESGGGLVQPGGSLRLSCKASGYTFSSYWMHWVRQAPGKGLEWIGRIDPYNGGTKYNEKFKGKATISRDNSKNTLYLQMNSLRAEDTAVYYCARYGYYLGSYAMDYWGQGTLVTVSSASTKGPSVFPLAPCSRSTSESTAALGCLVKDYFPEPVTVSWNSGALTSGVHTFPAVLQSSGLYSLSSVVTVPSSNFGTQTYTCNVDHKPSNTKVDKTVERKCCVECPPCPAPPVAGPSVFLFPPKPKDTLMISRTPEVTCVVVDVSHEDPEVQFNWYVDGVEVHNAKTKPREEQFNSTFRVVSVLTVVHQDWLNGKEYKCKVSNKGLPAPIEKTISKTKGQPREPQVYTLPPSREEMTKNQVSLTCLVKGFYPSDIAVEWESNGQPENNYKTTPPMLDSDGSFFLYSKLTVDKSRWQQGNVFSCSVMHEALHNHYTQKSLSLSPGK
light: DIQMTQSPSSLSASVGDRVTITCRASQDVSRYLTWYQQKPGKAPKLLIYAASSLQSGVPSRFSGSGSGTDFTLTISSLQPEDFATYYCQAYDYSLSGYVFGGGTKVEIKRTVAAPSVFIFPPSDEQLKSGTASVVCLLNNFYPREAKVQWKVDNALQSGNSQESVTEQDSKDSTYSLSSTLTLSKADYEKHKVYACEVTHQGLSSPVTKSFNRGEC
notes: the leaderless entry is used
With B4, the dissociation constant (Kd) with human PCSK9 [1] amounted to 1.84 nM; with rhesus PCSK9 (rhesus) [3], 1.24 nM; with rhesus PCSK9 (rhesus) [5], 1.24 nM; with human PCSK9 [6] it was 1.84 nM. Further, in the test with human FcRn, the “% bound (RUStability/RUBinding)” value amounted to 0.9%. The “IgG IC50 (nM), inhibition of PCSK9” value in the test with human PCSK9 [4] came out at 9.4 nM; with rhesus PCSK9 (rhesus) [8], 9 nM. Half-maximal inhibition with human PCSK9 [7] (IC50) was put at 6.4 nM.

B5: AX191 IgG2 (antibody)
heavy: EVQLLESGGGLVQPGGSLRLSCKASGYTFSSYWMHWVRQAPGKGLEWIGRIDPYNGGTKYNEKFKGKATISRDNSKNTLYLQMNSLRAEDTAVYYCARYGYYLGSYAMDYWGQGTLVTVSSASTKGPSVFPLAPCSRSTSESTAALGCLVKDYFPEPVTVSWNSGALTSGVHTFPAVLQSSGLYSLSSVVTVPSSNFGTQTYTCNVDHKPSNTKVDKTVERKCCVECPPCPAPPVAGPSVFLFPPKPKDTLMISRTPEVTCVVVDVSHEDPEVQFNWYVDGVEVHNAKTKPREEQFNSTFRVVSVLTVVHQDWLNGKEYKCKVSNKGLPAPIEKTISKTKGQPREPQVYTLPPSREEMTKNQVSLTCLVKGFYPSDIAVEWESNGQPENNYKTTPPMLDSDGSFFLYSKLTVDKSRWQQGNVFSCSVMHEALHNHYTQKSLSLSPGK
light: DIQMTQSPSSLSASVGDRVTITCRASQDISKYLAWYQQKPGKAPKLLIYAASSLQSGVPSRFSGSGSGTDFTLTISSLQPEDFATYYCQAYDYSSSAYVFGGGTKVEIKRTVAAPSVFIFPPSDEQLKSGTASVVCLLNNFYPREAKVQWKVDNALQSGNSQESVTEQDSKDSTYSLSSTLTLSKADYEKHKVYACEVTHQGLSSPVTKSFNRGEC
notes: IgG2
With B5, the dissociation constant Kd with human PCSK9 [1] was determined as 0.846 nM; with rhesus PCSK9 (rhesus) [5], 0.625 nM. Further, the “% bound (RUStability/RUBinding)” value with human FcRn turned out to be 1.1%. Besides, the “IgG IC50 (nM), inhibition of PCSK9” value is 8.7 nM with human PCSK9 [4] and 6.6 nM with rhesus PCSK9 (rhesus) [8]. Besides, in the test with human PCSK9 [7], the half-maximal inhibitory concentration (IC50) worked out at 3 nM.

B6: AX424 IgG2 (antibody, V domains shown)
VH: EVQLLESGGGLVQPGGSLRLSCKASGYTFSSYWMHWVRQAPGKGLEWIGRIDPYTGGTKYNEKFKGKATISRDNSKNTLYLQMNSLRAEDTAVYYCARYGYYLGSYAMDYWGQGTLVTVSS
VL: DIQMTQSPSSLSASVGDRVTITCRASQDVSRYLTWYQQKPGKAPKLLIYAASSLQSGVPSRFSGSGSGTDFTLTISSLQPEDFATYYCQAYDYSLSGYVFGGGTKVEIKR
notes: also called AX424 (55N to T)
Regarding B6, the values for the Kd with human PCSK9 [1] and in the test with rhesus PCSK9 (rhesus) [5] were 2.16 nM and 2.36 nM, respectively. Further, the “IgG IC50 (nM), inhibition of PCSK9” value with human PCSK9 [4] stood at 6 nM.

B7: AX114 IgG2 (antibody, V domains shown)
VH: EVQLLESGGGLVQPGGSLRLSCKASGYTFSSYGMYWVRQAPGKGLEWIGWIDPGSGGTKYNEKFKGKATISRDNSKNTLYLQMNSLRAEDTAVYYCARERYGYYFDYWGQGTLVTVSS
VL: EIVLTQSPATLSLSPGERATITCRASQYVGTYLNWYQQKPGQAPRLLIYDASNRATGIPARFSGSGSGTDFTLTISSLEPEDFAVYYCQVWDSSPPVAFGGGTKVEIK
As for B7, the dissociation constant Kd is 11.6 nM in the test with rhesus PCSK9 (rhesus) [3], 24 nM with human PCSK9 [6] and 11.2 nM with mouse PCSK9.

B8: AX132 IgG2 (antibody, V domains shown)
VH: EVQLLESGGGLVQPGGSLRLSCKASGYTFSSYGMYWVRQAPGKGLEWIGWIDPGSGGTKYNEKFKGKATISRDNSKNTLYLQMNSLRAEDTAVYYCARERYGYYFDYWGQGTLVTVSS
VL: EIVLTQSPATLSLSPGERATITCRASQYVGSYLNWYQQKPGQAPRLLIYDASNRATGIPARFSGSGSGTDFTLTISSLEPEDFAVYYCQVWDSSPPVVFGGGTKVEIK
On to B8, for which the Kd in the test with human PCSK9 [6] was determined as 6.16 nM; with mouse PCSK9, 2.76 nM; in the test with rat PCSK9, 100 nM.

B9: AX132 IgG2 (antibody, from another filing, V domains shown)
VH: EVQLLESGGGLVQPGGSLRLSCKASGYTFSSYGMYWVRQAPGKGLEWIGWIDPGSGGTKYNEKFKGKATISRDNSKNTLYLQMNSLRAEDTAVYYCARERYGYYFDYWGQGTLVTVSS
VL: EIVLTQSPATLSLSPGERATITCRASQYVGSYLNWYQQKPGQAPRLLIYDASNRATGIPARFSGSGSGTDFTLTISSLEPEDFAVYYCQVWDSSPPVVFGGGTKVEIKR
B9 yielded a Kd in the test with rhesus PCSK9 (rhesus) [3] of 2.59 nM.
